These results are taken from doi:10.1101/212704 (bioRxiv, 2017).

To fix the notation:
T1: His-tagged MPS1 (UniProt P33981 1-857)
T1 sequence (looked up): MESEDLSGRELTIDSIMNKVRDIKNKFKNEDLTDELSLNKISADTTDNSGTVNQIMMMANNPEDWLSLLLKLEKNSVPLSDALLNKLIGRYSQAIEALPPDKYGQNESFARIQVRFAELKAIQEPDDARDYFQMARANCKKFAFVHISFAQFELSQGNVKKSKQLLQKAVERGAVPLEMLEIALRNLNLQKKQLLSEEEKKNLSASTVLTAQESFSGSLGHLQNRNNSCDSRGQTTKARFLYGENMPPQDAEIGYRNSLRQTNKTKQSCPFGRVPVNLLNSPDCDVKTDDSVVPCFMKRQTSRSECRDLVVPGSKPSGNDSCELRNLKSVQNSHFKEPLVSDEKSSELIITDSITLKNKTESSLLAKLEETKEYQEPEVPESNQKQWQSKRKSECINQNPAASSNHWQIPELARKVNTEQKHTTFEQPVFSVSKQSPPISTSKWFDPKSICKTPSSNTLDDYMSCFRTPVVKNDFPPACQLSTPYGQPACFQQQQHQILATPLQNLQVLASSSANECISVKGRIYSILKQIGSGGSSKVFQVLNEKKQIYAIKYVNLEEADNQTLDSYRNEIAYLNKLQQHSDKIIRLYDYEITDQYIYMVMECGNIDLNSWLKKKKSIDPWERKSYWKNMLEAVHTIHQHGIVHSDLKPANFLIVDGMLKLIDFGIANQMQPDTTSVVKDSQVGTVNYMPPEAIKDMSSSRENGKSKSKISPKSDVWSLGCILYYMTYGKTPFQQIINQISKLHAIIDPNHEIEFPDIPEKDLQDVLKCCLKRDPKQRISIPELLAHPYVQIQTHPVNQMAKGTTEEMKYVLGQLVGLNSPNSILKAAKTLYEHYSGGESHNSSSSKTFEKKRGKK

B1: GST-MAD1-NTD (domain or fragment, human, UniProt Q9Y6D9 1-485, looked up)
chain: MEDLGENTMVLSTLRSLNNFISQRVEGGSGLDISTSAPGSLQMQYQQSMQLEERAEQIRSKSHLIQVEREKMQMELSHKRARVELERAASTSARNYEREVDRNQELLTRIRQLQEREAGAEEKMQEQLERNRQCQQNLDAASKRLREKEDSLAQAGETINALKGRISELQWSVMDQEMRVKRLESEKQELQEQLDLQHKKCQEANQKIQELQASQEARADHEQQIKDLEQKLSLQEQDAAIVKNMKSELVRLPRLERELKQLREESAHLREMRETNGLLQEELEGLQRKLGRQEKMQETLVGLELENERLLAKLQSWERLDQTMGLSIRTPEDLSRFVVELQQRELALKDKNSAVTSSARGLEKARQQLQEELRQVSGQLLEERKKRETHEALARRLQKRVLLLTKERDGMRAILGSYDSELTPAEYSPQLTRRMREAEDMVQKVHSHSAEMEAQLSQALEELGGQKQRADMLEMELKMLKSQSS
B2: GST-MAD1-MIM (domain or fragment, human, UniProt Q9Y6D9 485-584, looked up)
chain: SSAEQSFLFSREEADTLRLKVEELEGERSRLEEEKRMLEAQLERRALQGDYDQSRTKVLHMSLNPTSVARQRLREDHSQLQAECERLRGLLRAMERGGTV
B3: GST-tagged MAD1-CTD globular subdomain (638-718 residues) (domain or fragment, human, UniProt Q9Y6D9 638-718, looked up)
chain: GYQIDITTENQYRLTSLYAEHPGDCLIFKATSPSGSKMQLLETEFSHTVGELIEVHLRRQDSIPAFLSSLTLELFSRQTVA
B4: MAD2^LARQ (L13A/R133E/Q134A) (natural protein, UniProt Q13257 2-205, looked up)
chain: ALQLSREQGITARGSAEIVAEFFSFGINSILYQRGIYPSETFTRVQKYGLTLLVTTDLELIKYLNNVVEQLKDWLYKCSVQKLVVVISNIESGEVLERWQFDIECDKTAKDDSAPREKSQKAIQDEIRSVIEAITATVTFLPLLEVSCSFDLLIYTDKDLVVPEKWEESGPQFITNSEEVRLRSFTTTIHKVNSMVAYKIPVND

Experiment in all cases: pull-down
In assay [1] the target is T1, His-tagged MPS1.
The target of assay [2] is untagged MAD2^L13A (UniProt Q13257 2-205, L13A).
Assay [3] addresses 6×His-tagged wild type MAD2 (UniProt Q13257 2-205).
For assay [4], the target named is B1.

Regarding B1, the binding result in assay [1] is given as “binds”. As to B2, the binding result in assay [2] and in assay [3] was “binds” in each case. On to B3, for which, in assay [2], the binding result is recorded as “binds”. Take B4: the binding result in assay [4] is on record as “binds”.
